Like-named read-outs stand apart in the source and are kept apart here.
Columns and labels:
Experiment in all cases: SPR
[1] = target: T1, DEN4-NS1 (NAD4) (Dengue virus 4 Dominica/814669/1981) (UniProt P09866)
T1 sequence: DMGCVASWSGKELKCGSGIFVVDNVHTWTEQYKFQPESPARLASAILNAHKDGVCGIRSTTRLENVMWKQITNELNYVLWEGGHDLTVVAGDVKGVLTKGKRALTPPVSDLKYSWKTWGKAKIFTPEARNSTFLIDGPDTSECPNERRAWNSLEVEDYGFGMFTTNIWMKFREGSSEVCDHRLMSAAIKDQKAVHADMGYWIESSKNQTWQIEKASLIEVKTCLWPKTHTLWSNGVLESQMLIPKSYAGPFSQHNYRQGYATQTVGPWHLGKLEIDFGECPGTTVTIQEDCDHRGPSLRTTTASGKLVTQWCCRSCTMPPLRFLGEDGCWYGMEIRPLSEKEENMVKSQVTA

[2] = target: T2, DEN3-NS1 (NAD3) (Dengue virus 3 Sri Lanka D3/H/IMTSSA-SRI/2000/1266) (UniProt Q6YMS4)
T2 sequence: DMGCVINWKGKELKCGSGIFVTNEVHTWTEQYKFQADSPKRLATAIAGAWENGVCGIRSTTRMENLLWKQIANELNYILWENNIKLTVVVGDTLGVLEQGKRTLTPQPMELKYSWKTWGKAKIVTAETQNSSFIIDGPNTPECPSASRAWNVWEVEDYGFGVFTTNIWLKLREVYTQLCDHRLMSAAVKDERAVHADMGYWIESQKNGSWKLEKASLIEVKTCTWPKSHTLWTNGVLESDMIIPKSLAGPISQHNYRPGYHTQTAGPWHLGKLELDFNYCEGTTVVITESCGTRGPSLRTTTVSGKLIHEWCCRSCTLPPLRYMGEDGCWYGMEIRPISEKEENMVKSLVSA

[3] = target: T3, DEN2-NS1 (NAD2) (Dengue virus 2 Thailand/16681/84) (UniProt P29990); conditions: N1,N2 = Ds
T3 sequence: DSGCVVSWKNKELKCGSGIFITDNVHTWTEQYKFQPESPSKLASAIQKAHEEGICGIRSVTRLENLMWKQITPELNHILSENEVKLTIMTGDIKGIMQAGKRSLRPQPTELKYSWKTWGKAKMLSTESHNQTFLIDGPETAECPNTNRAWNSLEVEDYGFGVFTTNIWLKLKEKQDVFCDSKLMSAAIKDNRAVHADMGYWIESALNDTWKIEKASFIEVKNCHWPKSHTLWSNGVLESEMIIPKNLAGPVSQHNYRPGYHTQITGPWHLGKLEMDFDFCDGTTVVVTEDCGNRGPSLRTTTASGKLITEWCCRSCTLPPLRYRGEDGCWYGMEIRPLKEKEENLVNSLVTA

Sequence: CGGCGGAGACGTAACGCNTATCAAATCNAAACAGCTTAGGGTCCGCCGCGCGTAGCG [D4-3-57h (AptD4)]
- Kd ([1]; N = Ds): 0.03 nM

Sequence: TGATATGGTCTACTGGTCTCAACGGTTGTCAAACGGNTATCACGGCNACACACCTGCGGACAAGCGGAGTAGTTAGACC [D4-1-78]
- Kd ([1]; N = Ds): 0.042 nM

Sequence: CCGCTTGTCATCTAACCTGGCCATGTGGTACTGTAACGGCTGACAAGCGGCGCGTAGCG [Cont-D3-2-59h]
- Kd [2]: 190 nM

Sequence: TGATATGGTCTACTGAAGTGTTGTCATCTANCCTGGCCNTGTGGTACTGTAACGGCTGACAAGCGGAGTAGTTAGACC [D3-2-78]
- Kd ([2]; N = Ds): 0.041 nM

Sequence: GACGGTCTACTGGTCCGNCTGGGAACAAGNGGCGGGAGGGANGGGTGTGGGTGCGACAAGCGGAGTAGTTAGACCGTCCGCGTAGCG [D2-1d-87h]
- Kd ([3]; N3 = diol-Pa): 0.105 nM

Sequence: TTTTCGCACTCCATGATATGGTCTACTGGTCCGNCTGGGAACAAGNGGCGGGAGGGANGGGTGTGGGTGCGACAAGCGGAGTAGTTAGACCGTCAAA [D2-1y-96]
- Kd ([3]; N3 = diol-Px): 0.041 nM

Sequence: CGGCGGAGACGTAACGCATATCAAATCAAAACAGCTTAGGGTCCGCCGCGCGTAGCG [Cont-D4-3-57h]
- Kd [1]: 2 nM

Sequence: CTCCGCTGTCAAACGGNTATCACGGCNACACACCTGCGGACAGCGGAGCGCGTAGCG [D4-1-57h]
- Kd ([1]; N = Ds): 0.029 nM

Sequence: GGCTGGTCCGNCTGGGAACAAGNGGCGGGAGGGANGGGTGTGGGTGCGACAAGCGGACCAGCCCGCGTAGCG [D2-1d-72h (AptD2)]
- Kd ([3]; N3 = diol-Pa): 0.104 nM

Sequence: CCGCTTGTCATCTANCCTGGCCNTGTGGTACTGTAACGGCTGACAAGCGGCGCGTAGCG [D3-2-59h (AptD3)]
- Kd ([2]; N = Ds): 0.057 nM

Sequence: TTTTCGCACTCCATGATATGGTCTACTGGTCCGNCTGGGAACAAGNGGCGGGAGGGANGGGTGTGGGTGCGACAAGCGGAGTAGTTAGACCGTCAAA [D2-1d-97]
- Kd ([3]; N3 = diol-Pa): 0.114 nM

Sequence: TGATATGGTCTACTGGAGGAGACGTAACGCNTATCAAATCNAAACAGCTTAGGGTCCGACAAGCGGAGTAGTTAGACC [D4-3-78]
- Kd ([1]; N = Ds): 0.034 nM

Source: PMC8599795
